The target of the assay is HLA-A*02:01 (Homo sapiens, UniProt P04439, D140Y/D185E/D98H/E176V/E277Q/G131W/G231S/I119V/I121R/I166T/I218V/L300P/L318F/N151K/N90K/P208A/P217A/Q86G/Q94H/R138H/R169H/T345S). The assay can be described thus: MHC binding assay (UV-ligand exchange, β2m ELISA, peptide exchange yield). Conditions: MHC class I binding score; binding to HLA-A*02:01 ranged by peptide exchange yield (UV-ligand exchange, β2m ELISA). The method in brief: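 Peptide–HLA-A*02:01 complexes were formed by UV-mediated exchange of a UV-cleavable ligand for the test peptide. Exchange yield was measured by capturing complexes on streptavidin, detecting with HRP anti-β2m antibody (1 h, 37°C) and reading TMB absorbance at 450 nm.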
A general note: An ELISA detects its analyte on a solid surface through an enzyme-linked reagent.
Take “539 (ALFDAQAQV; listed as Homo sapiens) [compound 539]”: the Peptide exchange entry is “″+++″ (≧50% = +++)”. For “541 (SMLEPVPEL; listed as Homo sapiens) [compound 541]” the value was “″+++″ (≧50% = +++)”; for “542 (RVWDISTVSSV; listed as Homo sapiens) [compound 542]”, “″+++″ (≧50% = +++)”; for “543 (GLLPTPITQQASL; listed as Homo sapiens) [compound 543]”, “″+++″ (≧50% = +++)”. On to “544 (LLWDVPAPSL; listed as Homo sapiens) [compound 544]”, for which the Peptide exchange result is “″+++″ (≧50% = +++)”. For “545 (LLADLLHNV; listed as Homo sapiens) [compound 545]” the value was “″+++″ (≧50% = +++)”. For “546 (VMIAGKVAVV; listed as Homo sapiens) [compound 546]” the value was “″+++″ (≧50% = +++)”; for “547 (TLDITPHTV; listed as Homo sapiens) [compound 547]”, “″+++″ (≧50% = +++)”; for “548 (ALWENPESGEL; listed as Homo sapiens) [compound 548]”, “″++″ (≧20% = ++)”.

As for “549 (AMLENASDIKL; listed as Homo sapiens) [compound 549]”, the Peptide exchange entry is reported as “″+++″ (≧50% = +++)”.

In the case of “550 (FLYDEIEAEVNL; listed as Homo sapiens) [compound 550]”, the Peptide exchange result is recorded as “″+++″ (≧50% = +++)”. With “551 (KLYESLLPFA; listed as Homo sapiens) [compound 551]”, the Peptide exchange entry is given as “″+++″ (≧50% = +++)”.

Turning to “552 (GLLDLPFRVGV; listed as Homo sapiens) [compound 552]”, the Peptide exchange result is “″++++″ (≧75% = ++++)”. Then “553 (SLLNQDLHWSL; listed as Homo sapiens) [compound 553]”, with “″++++″ (≧75% = ++++)”; and “554 (LLMPSSEDLLL; listed as Homo sapiens) [compound 554]”, with “″+++″ (≧50% = +++)”; and “555 (YVLEGLKSV; listed as Homo sapiens) [compound 555]”, with “″+++″ (≧50% = +++)”.

Regarding “556 (FLTDLEDLTL; listed as Homo sapiens) [compound 556]”, the Peptide exchange entry is recorded as “″+++″ (≧50% = +++)”.

For the substance “557 (KLYDDMIRL; listed as Homo sapiens) [compound 557]”, the Peptide exchange entry is listed as “″+++″ (≧50% = +++)”. Regarding “558 (GLLENIPRV; listed as Homo sapiens) [compound 558]”, the Peptide exchange entry was “″+++″ (≧50% = +++)”.

For “559 (VTVPPGPSL; listed as Homo sapiens) [compound 559]”, the Peptide exchange entry was “″++″ (≧20% = ++)”. For “560 (ALWDIETGQQTTT; listed as Homo sapiens) [compound 560]” the value was “″+++″ (≧50% = +++)”; for “561 (YLQLTQSEL; listed as Homo sapiens) [compound 561]”, “″+++″ (≧50% = +++)”. As for “562 (YLEELPEKLKL; listed as Homo sapiens) [compound 562]”, the Peptide exchange result is on record as “″+++″ (≧50% = +++)”. As to “563 (WLLPYNGVTV; listed as Homo sapiens) [compound 563]”, the Peptide exchange result is reported as “″+++″ (≧50% = +++)”.

For “564 (TVTNAVVTV; listed as Homo sapiens) [compound 564]”, the Peptide exchange result was “″+++″ (≧50% = +++)”. Then “565 (ALQETPTSV; listed as Homo sapiens) [compound 565]”, with “″++″ (≧20% = ++)”; and “566 (VIADGGIQNV; listed as Homo sapiens) [compound 566]”, with “″++″ (≧20% = ++)”.

“567 (SLLPLDDIVRV; listed as Homo sapiens) [compound 567]”: the Peptide exchange entry was “″+++″ (≧50% = +++)”. Take “568 (TLYDIAHTPGV; listed as Homo sapiens) [compound 568]”: the Peptide exchange entry is on record as “″++++″ (≧75% = ++++)”. For the substance “569 (KLVDRTWTL; listed as Homo sapiens) [compound 569]”, the Peptide exchange result is on record as “″+++″ (≧50% = +++)”. Then “570 (ALANQIPTV; listed as Homo sapiens) [compound 570]”, with “″++″ (≧20% = ++)”; and “571 (LLLTTIPQI; listed as Homo sapiens) [compound 571]”, with “″+++″ (≧50% = +++)”. For “572 (ALADLIEKELSV; listed as Homo sapiens) [compound 572]”, the Peptide exchange entry is given as “″+++″ (≧50% = +++)”. For “573 (ILVANAIVGV; listed as Homo sapiens) [compound 573]” the value was “″+++″ (≧50% = +++)”; for “574 (YLLQEPPRTV; listed as Homo sapiens) [compound 574]”, “″++″ (≧20% = ++)”; for “575 (YLISQVEGHQV; listed as Homo sapiens) [compound 575]”, “″+++″ (≧50% = +++)”. For the substance “576 (ILLNNSGQIKL; listed as Homo sapiens) [compound 576]”, the Peptide exchange result is “″++++″ (≧75% = ++++)”.

In the case of “577 (VMFEDGVLMRL; listed as Homo sapiens) [compound 577]”, the Peptide exchange entry is listed as “″+++″ (≧50% = +++)”. Then “578 (FLDPGGPMMKL; listed as Homo sapiens) [compound 578]”, with “″+++″ (≧50% = +++)”; and “579 (NLMEMVAQL; listed as Homo sapiens) [compound 579]”, with “″++″ (≧20% = ++)”; and “580 (LLMENAERV; listed as Homo sapiens) [compound 580]”, with “″++″ (≧20% = ++)”.

Turning to “582 (TLCDVILMV; listed as Homo sapiens) [compound 582]”, the Peptide exchange entry is on record as “″+++″ (≧50% = +++)”. On to “583 (ILANDGVLLAA; listed as Homo sapiens) [compound 583]”, for which the Peptide exchange result is given as “″+++″ (≧50% = +++)”. Consider “584 (ALAEVAAMENV; listed as Homo sapiens) [compound 584]”, for which the Peptide exchange entry is on record as “″+++″ (≧50% = +++)”. Then “585 (ALWDLAADKQTL; listed as Homo sapiens) [compound 585]”, with “″++++″ (≧75% = ++++)”. For “586 (KLKPGDLVGV; listed as Homo sapiens) [compound 586]” the value was “″+++″ (≧50% = +++)”; for “587 (VMNDRLYAI; listed as Homo sapiens) [compound 587]”, “″+++″ (≧50% = +++)”; for “588 (SLLPLSHLV; listed as Homo sapiens) [compound 588]”, “″+++″ (≧50% = +++)”. As to “589 (KLYPQLPAEI; listed as Homo sapiens) [compound 589]”, the Peptide exchange entry is given as “″+++″ (≧50% = +++)”. As to “590 (SLIEKLWQT; listed as Homo sapiens) [compound 590]”, the Peptide exchange result is given as “″++″ (≧20% = ++)”.

As for “591 (SMAELDIKL; listed as Homo sapiens) [compound 591]”, the Peptide exchange result was “″+++″ (≧50% = +++)”.

As for “592 (RLLSAAENFL; listed as Homo sapiens) [compound 592]”, the Peptide exchange entry is listed as “″+++″ (≧50% = +++)”.

The values above are taken from patent publication US20170037111A1, “Novel peptides and combination of peptides for use in immunotherapy against ovarian cancer and other cancers” (immatics biotechnologies GmbH, priority 2015, published 2017).
